These results are taken from PMC3378601 (PLoS Biology, 2012).

The target in the assay is T1, Hsp42, yeast small heat shock protein (yeast, UniProt Q12329 1-375).
T1 construct: Hsp42, small heat shock protein of the yeast cytosol; also called sHsp; source: purified as described [28]; copies: 24
The assay is described as follows: co-sedimentation; preassembled NM fibers (5 µM NM monomer) incubated 60 min at 25°C with Hsp26 or Hsp42 (10 µM); fibers recovered at 16,000 g for 30 min; pellet with or without a wash step, SDS-PAGE, Coomassie. As to conditions: both partners purified.

T1 sequence (Q12329 whole entry): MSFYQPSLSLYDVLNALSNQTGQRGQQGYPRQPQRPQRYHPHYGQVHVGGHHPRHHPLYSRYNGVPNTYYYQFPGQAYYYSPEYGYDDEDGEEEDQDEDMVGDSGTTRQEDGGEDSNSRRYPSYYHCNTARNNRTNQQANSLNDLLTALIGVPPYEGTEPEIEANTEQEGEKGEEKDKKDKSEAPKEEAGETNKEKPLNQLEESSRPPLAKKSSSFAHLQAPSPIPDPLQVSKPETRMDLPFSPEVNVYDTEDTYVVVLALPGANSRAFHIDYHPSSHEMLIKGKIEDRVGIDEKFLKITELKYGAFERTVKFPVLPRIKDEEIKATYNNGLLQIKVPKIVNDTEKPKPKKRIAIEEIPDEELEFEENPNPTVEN

B1: NM, the prion domain (N and M domains) of the yeast translation termination factor Sup35, untagged (domain or fragment, UniProt P05453 1-253, looked up)
chain: MSDSNQGNNQQNYQQYSQNGNQQQGNNRYQGYQAYNAQAQPAGGYYQNYQGYSGYQQGGYQQYNPDAGYQQQYNPQGGYQQYNPQGGYQQQFNPQGGRGNYKNFNYNNNLQGYQAGFQPQSQGMSLNDFQKQQKQAAPKPKKTLKLVSSSGIKLANATKKVGTKPAESDKKEEEKSAETKEPTKEPTKVEEPVKKEEKPVQTEEKTEEKSELPKVEDLKISESTHNTNNANVTSADALIKEQEEEVDDEVVND
notes: Sup35, yeast translation termination factor; N domain (amino acids 1-123) plus M domain (amino acids 124-253) = NM; One construct used in several states: soluble NM, molten oligomers and preassembled amyloid fibers (assembled at 25°C with agitation in assembly buffer); With Hsp26 and Hsp42 it stood as preassembled fibers; also called untagged NM; NM fibers; source: purified as described [48]
B1: the binding result was “binds”.
